Source: patent US20030198640A1 (Human Genome Sciences, published 2003)

B3: full-length human TR6 (without Fc), baculovirus/Sf9 (receptor)
chain: VAETPTYPWRDAETGERLVCAQCPPGTFVQRPCRRDSPTTCGPCPPRHYTQFWNYLERCRYCNVLCGEREEEARACHATHNRACRCRTGFFAHAGFCLEHASCPPGAGVIAPGTPSQNTQCQPCPPGTFSASSSSSEQCQPHRNCTALGLALNVPGSSSHDTLCTSCTGFPLSTRVPGAEECERAVIDFVAFQDISIKRLQRLLQALEAPEGWGPTPRAGRAALQLKLRRRLTELLGAQDGALLVRLLQALRVARMPGLERSVRERFLPVH
notes: also called soluble TR6; non-Fc form of TR6
B6: human LIGHT protein, natural secreted form (aa 83-240), E. coli (ligand)
chain: LIQERRSHEVNPAAHLTGANSSLTGSGGPLLWETQLGLAFLRGLSYHDGALVVTKAGYYYIYSKVQLGGVGCPLGLASTITHGLYKRTPRYPEELELLVSQQSPCGRATSSSRVWWDSSFLGGVVHLEAGEEVVVRVLDERLVRLRDGTRSYFGAFMV
notes: also called soluble LIGHT

How the values were obtained:
[1] = biological target: T1, full length TNF-gamma-beta expressed on the cell surface (HEK293F stable transfectants); cells transfected … (human, UniProt O95150 1-251); test: flow cytometry on HEK293F cells expressing full length TNF-gamma-beta
T1 construct: also called TNF-gamma-beta expressing cells
T1 sequence: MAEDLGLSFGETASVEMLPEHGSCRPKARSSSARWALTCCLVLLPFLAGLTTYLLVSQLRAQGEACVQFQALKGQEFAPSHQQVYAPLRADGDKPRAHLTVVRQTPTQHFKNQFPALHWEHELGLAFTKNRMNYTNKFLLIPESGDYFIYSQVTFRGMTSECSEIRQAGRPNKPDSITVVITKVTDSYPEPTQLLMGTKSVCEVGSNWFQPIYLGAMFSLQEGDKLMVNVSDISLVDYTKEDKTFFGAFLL
Protocol: (§1) These cells were used to screen the Fc-fusion form of the extracellular domain of TNFR family members, including TNFR1, Fas, HveA, DR3, DR4, DR5, DR6, DcR1, DcR2, TR6, OPG, RANK, AITR, TAC1, CD40, and OX40. […] TR6 has been previously described as a decoy receptor (Pitti et al., Nature 396:699-703 (1998); Yu et al., J. Biol. Chem. 274:13733-6 (1999)) capable of competing with Fas and HveA for binding of FasL and LIGHT, respectively.
(§2) One million cells, in 0.1 ml of FACS buffer (PBS, 0.1% BSA, 0.1% NaN₃), were incubated with 0.1-1 microgram of protein or antibody at RT for 15 min. The cells were washed with 3 ml of FACS buffer, reacted with biotinylated primary antibody, and stained with PE-conjugated secondary antibody at RT for 15 min. Cells were then washed again, resuspended in 0.5 microgram/ml of propidium iodide, and live cells were gated and analyzed on a FACScan using the CellQuest software (BD Biosciences).

[2] = biological target: T1, full length TNF-gamma-beta expressed on …; test: flow cytometry competition on HEK293F cells expressing TNF-gamma-beta; competitor of DR3-Fc
Protocol: as §1, §2

[3] = biological target: B6; test: BIAcore
Protocol: (§3) The amount of bound protein was determined during washing of the flow cell with HBS buffer (10 mM HEPES, pH 7.4, 150 mM NaCl, 3.4 mM EDTA, 0.005% Surfactant P20). The flow cell surface was regenerated by washing off the bound proteins with 20 microliters of 10 mM glycine-HCl pH 2.3. […] The on- and off-rates were determined according a kinetic evaluation program in the BiaEvaluation 3 software using a 1:1 binding model and the global analysis method.
(§4) We determined the kinetics of binding of LIGHT to both the Fe and non-Fc versions of TR6 according to BIAcore analysis.

[4] = biological target: T2, TR2-Fc (extracellular domain of human TR2, aa 1-192, fused to the Fc domain of human IgG1) (human, UniProt Q92956 39-192); test: BIAcore, TR2-Fc immobilised; TR2-Fc, not TR6
T2 construct: range 1-192; also called HveA-Fc; not shown: Fc domain of human IgG1
T2 sequence (looked up): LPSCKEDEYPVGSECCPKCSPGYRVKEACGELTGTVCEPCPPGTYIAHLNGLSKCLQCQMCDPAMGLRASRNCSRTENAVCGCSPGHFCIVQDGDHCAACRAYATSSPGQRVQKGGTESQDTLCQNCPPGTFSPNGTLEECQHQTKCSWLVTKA

[5] = biological target: B3; test: BIAcore; non-Fc TR6
[6] = biological target: T3, TR6-Fc (full-length human TNFR-6 alpha, SEQ ID NO:6 aa 1-300, fused to the Fc domain of human IgG1) (human, UniProt O95407 30-300); test: BIAcore; TR6-Fc form
T3 construct: also called TNFR-6 alpha Fc fusion protein; DcR3-Fc; not shown: Fc domain of human IgG1
T3 sequence: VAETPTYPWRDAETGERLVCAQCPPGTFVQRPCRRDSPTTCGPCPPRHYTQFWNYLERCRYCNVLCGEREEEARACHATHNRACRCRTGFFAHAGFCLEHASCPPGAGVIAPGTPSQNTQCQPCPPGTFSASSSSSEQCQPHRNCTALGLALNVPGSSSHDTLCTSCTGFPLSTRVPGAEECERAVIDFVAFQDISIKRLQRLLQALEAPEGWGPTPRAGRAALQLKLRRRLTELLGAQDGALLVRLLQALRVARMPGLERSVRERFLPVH
Protocol: as §3, §4

[7] = biological target: B3; test: flow cytometry competition on activated human T cells
[8] = biological target: T3, TR6-Fc (full-length human TNFR-6 alpha, …); test: flow cytometry on 293 cells overexpressing LIGHT
Protocol: Cells were incubated with Fc-fusion proteins in 100 ul FACS buffer (d-PBS with 0.1% sodium azide and 0.1% BSA) for 15-20 minutes at room temperature. The cells were washed once and reacted with goat F (ab)₂ anti-human IgG (Southern Biotechnology, Birmingham, Ala.) for 15 minutes at room temperature. After wash, the cells were resuspended in 0.5 ug/ml propidium iodide, and live cells were gated and analyzed on a FACScan (BD Biosciences, Mansfield, Mass.).
This was tested on 293 cells overexpressing LIGHT according to flow cytometry.

[9] = biological target: T4, DR3, full length, on cells (transfected 293T cells; naturally expressed on TF-1 cells and T cells) (human, UniProt Q93038 25-417); test: cell-based or functional assay
T4 sequence: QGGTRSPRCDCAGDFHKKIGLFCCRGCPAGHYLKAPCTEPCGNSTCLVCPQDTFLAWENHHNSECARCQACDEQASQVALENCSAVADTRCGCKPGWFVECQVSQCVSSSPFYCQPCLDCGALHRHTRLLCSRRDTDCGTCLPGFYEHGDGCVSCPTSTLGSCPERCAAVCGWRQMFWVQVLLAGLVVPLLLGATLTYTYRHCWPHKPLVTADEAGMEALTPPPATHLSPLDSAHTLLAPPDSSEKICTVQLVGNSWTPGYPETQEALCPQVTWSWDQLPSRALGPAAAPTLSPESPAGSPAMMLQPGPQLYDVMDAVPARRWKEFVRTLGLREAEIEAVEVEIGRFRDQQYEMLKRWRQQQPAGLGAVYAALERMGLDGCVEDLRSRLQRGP

B1: DcR2 (Fc-fusion form of the extracellular domain) (Fc fusion, UniProt Q9UBN6 56-211, looked up)
chain: ATIPRQDEVPQQTVAPQQQRRSLKEEECPAGSHRSEYTGACNPCTEGVDYTIASNNLPSCLLCTVCKSGQTNKSSCTTTRDTVCQCEKGSFQDKNSPEMCRTCRTGCPRGMVKVSNCTPRSDIKCKNESAASSTGKTPAAEETVTTILGMLASPYH
notes: extracellular domain; not shown: Fc part
binding result [1]: no binding

B2: TNFR1-Fc (Fc fusion, UniProt P19438 30-211, looked up)
chain: LVPHLGDREKRDSVCPQGKYIHPQNNSICCTKCHKGTYLYNDCPGPGQDTDCRECESGSFTASENHLRHCLSCSKCRKEMGQVEISSCTVDRDTVCGCRKNQYRHYWSENLFQCFNCSLCLNGTVHLSCQEKQNTVCTCHAGFFLRENECVSCSNCKKSLECTKLCLPQIENVKGTEDSGTT
notes: as for B1
binding result [1]: no binding

B3
molar ratio TR6 to DR3-Fc at which no DR3-Fc binding was detected [2]: 2 molar ratio (TR6:DR3-Fc) | fold off rate against TR6-Fc [3]: ~2 fold

B4: DcR1 (Fc-fusion form of the extracellular domain) (Fc fusion, UniProt O14798 26-221, looked up)
chain: ATTARQEEVPQQTVAPQQQRHSFKGEECPAGSHRSEHTGACNPCTEGVDYTNASNNEPSCFPCTVCKSDQKHKSSCTMTRDTVCQCKEGTFRNENSPEMCRKCSRCPSGEVQVSNCTSWDDIQCVEEFGANATVETPAAEETMNTSPGTPAPAAEETMNTSPGTPAPAAEETMTTSPGTPAPAAEETMTTSPGTPA
notes: as for B1
binding result [1]: no binding

B5: AITR (Fc-fusion form of the extracellular domain) (Fc fusion, UniProt Q9Y5U5 26-162, looked up)
chain: QRPTGGPGCGPGRLLLGTGTDARCCRVHTTRCCRDYPGEECCSEWDCMCVQPEFHCGDPCCTTCRHHPCPPGQGVQSQGKFSFGFQCIDCASGTFSGGHEGHCKPWTDCTQFGFLTVFPGNKTHNAVCVPGSPPAEP
notes: as for B1
binding result [1]: no binding

B6
Kd [4]: 4.56 nM | Kd [5]: 14.3 nM | koff [5]: 0.00483 s⁻¹ | kon [5]: 338000 M⁻¹ s⁻¹ | Kd [6]: 5.46 nM | koff [6]: 0.0023 s⁻¹ | kon [6]: 422000 M⁻¹ s⁻¹

B7: full-length human LIGHT on cells (293F stable transfectants; endogenous LIGHT on activated human T cells) (ligand)
chain: MEESVVRPSVFVVDGQTDIPFTRLGRSHRRQSCSVARVGLGLLLLLMGAGLAVQGWFLLQLHWRLGEMVTRLPDGPAGSWEQLIQERRSHEVNPAAHLTGANSSLTGSGGPLLWETQLGLAFLRGLSYHDGALVVTKAGYYYIYSKVQLGGVGCPLGLASTITHGLYKRTPRYPEELELLVSQQSPCGRATSSSRVWWDSSFLGGVVHLEAGEEVVVRVLDERLVRLRDGTRSYFGAFMV
notes: also called cell membrane LIGHT; LIGHT-transfectants
binding result [7]: binds | binding result [8]: binds

B8: TNF-gamma-β (form used not stated) (ligand)
chain: LKGQEFAPSHQQVYAPLRADGDKPRAHLTVVRQTPTQHFKNQFPALHWEHELGLAFTKNRMNYTNKFLLIPESGDYFIYSQVTFRGMTSECSEIRQAGRPNKPDSITVVITKVTDSYPEPTQLLMGTKSVCEVGSNWFQPIYLGAMFSLQEGDKLMVNVSDISLVDYTKEDKTFFGAFLL
IFNγ production by anti-CD2 stimulated lamina propria mononuclear cells (ELISA) [9]: ≥ 2 fold

B9: RANK (Fc-fusion form of the extracellular domain) (Fc fusion, UniProt Q9Y6Q6 30-212, looked up)
chain: IAPPCTSEKHYEHLGRCCNKCEPGKYMSSKCTTTSDSVCLPCGPDEYLDSWNEEDKCLLHKVCDTGKALVAVVAGNSTTPRRCACTAGYHWSQDCECCRRNTECAPGLGAQHPLQLNKDTVCKPCLAGYFSDAFSSTDKCRPWTNCTFLGKRVEHHGTEKSDAVCSSSLPARKPPNEPHVYLP
notes: as for B1
binding result [1]: no binding

B10: OPG (Fc-fusion form) (Fc fusion, UniProt O00300 22-194, looked up)
chain: ETFPPKYLHYDEETSHQLLCDKCPPGTYLKQHCTAKWKTVCAPCPDHYYTDSWHTSDECLYCSPVCKELQYVKQECNRTHNRVCECKEGRYLEIEFCLKHRSCPPGFGVVQAGTPERNTVCKRCPDGFFSNETSSKAPCRKHTNCSVFGLLLTQKGNATHDNICSGNSESTQK
notes: as for B1
binding result [1]: no binding

B11: OX40 (Fc-fusion form of the extracellular domain) (Fc fusion, UniProt P43489 29-214, looked up)
chain: LHCVGDTYPSNDRCCHECRPGNGMVSRCSRSQNTVCRPCGPGFYNDVVSSKPCKPCTWCNLRSGSERKQLCTATQDTVCRCRAGTQPLDSYKPGVDCAPCPPGHFSPGDNQACKPWTNCTLAGKHTLQPASNSSDAICEDRDPPATQPQETQGPPARPITVQPTEAWPRTSQGPSTRPVEVPGGRA
notes: as for B1
binding result [1]: no binding
